Experimental data published in publication PMC4809751.

Target: ZbmA, the zorbamycin (ZBM)-binding protein of Streptomyces flavoviridis ATCC21892 (unmodified, as cocrystallised with Cu(II)-ZBM) (Streptomyces flavoviridis ATCC21892)
Test: crystal structure

stoichiometry N: 2
Substance: ZbmA, the zorbamycin (ZBM)-binding protein of Streptomyces flavoviridis ATCC21892 (unmodified, as cocrystallised with Cu(II)-ZBM) (natural protein)
